Patent US20030148973A1, “MAGE-A1 peptides for treating or preventing cancer” (priority 2001, published 2003)

Biological target: T1, HLA-A0201 molecules on T2 cells (Homo sapiens, UniProt P04439, D140Y/D185E/D98H/E176V/E277Q/G131W/G231S/I119V/I121R/I166T/I218V/L300P/L318F/N151K/N90K/P208A/P217A/Q86G/Q94H/R138H/R169H/T345S)
T1 construct: endogenous in cells; host or cells: T2 cell line (from Dr. Peter Creswell, Yale University)
Test: Binding and stabilization of surface HLA-A0201 on T2 cells (BB7.2 antibody, flow cytometry)
Conditions: 20 μg peptide pulsed onto 10^6 denatured T2 cells, 4 hours at 26° C.; BB7.2 binding detected with FITC conjugate
Protocol: The ability of the MAGE-A1 derived peptides to be presented in the context of HLA-A2 was determined by the ability of such peptides stabilize membrane-bound HLA-A0201 molecules The T2 cell line (Dr. Peter Creswell, Yale University) has been well documented to have a defective TAP (e.g. Transporter for Antigen Processing) transporter function. As a result, the majority of intracellularly generated peptides are not transported into the endoplasmic reticulum and thus are unable to associate with newly synthesized HLA class 1 MHC molecules (e.g. HLA-A0201; Salter, R D and Creswell, P. (1986) EMBO J 5:943). […] The stability of the surface HLA-A0201 molecules can be restored upon interaction with suitable exogenous peptides. […]
In order to determine whether the identified nonapeptides can be presented by HLA-A0201, T2 cells were propagated in RPMI complete medium (RPMI medium supplemented with 10% heat-inactivated bovine serum, 120.0 units per ml of penicillin G sodium, 120 μg per ml of streptomycin sulphate, and 0.35 mg per ml of L-glutamine). The ability of MAGE-A1 derived peptides to bind and stabilize surface HLA-A0201 molecules on T2 cells was determined utilizing a standard protocol (Deng, Y. (1997) J Immunol 158:1507-1515). […] The binding of BB7.2 was detected via the addition of 1.0 μg per test of goat anti-mouse IgG-Fc fluorescein (FITC) conjugate (BETHYL Laboratories Inc). […]

CLGLSYDGL (listed as Homo sapiens) [MAGE-A1 174]
Fluorescence Index (FI): 1.73
